Data reported in PMC9346951 (Nature, 2022).
Numbering of substitutions follows the chain as printed. Names and notes keep the numbering of the source. Where two headings read alike, the source gives them in different places. Each block holds one molecule with its values, some of them ahead of it.

Legend:
TGA3 NID = biological target: T1, TGA3 NID (Arabidopsis thaliana, UniProt Q39234); experiment: X-ray crystal structure; assay type: binding; details: co-purified from E. coli expression; crystals at pH 5.0, 20 °C
T1 sequence (Q39234 160-384): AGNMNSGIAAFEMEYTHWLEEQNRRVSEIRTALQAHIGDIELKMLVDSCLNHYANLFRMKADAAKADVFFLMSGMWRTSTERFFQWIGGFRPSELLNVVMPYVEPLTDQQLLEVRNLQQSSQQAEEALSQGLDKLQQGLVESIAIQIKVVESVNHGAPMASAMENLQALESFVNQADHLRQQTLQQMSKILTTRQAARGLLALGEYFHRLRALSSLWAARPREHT

[1] = biological target: the molecule itself; experiment: oxidation with hydrogen peroxide, non-reducing SDS–PAGE
NPR1 = NPR1 (Arabidopsis thaliana, UniProt P93002 1-593); experiment: EMSA
TGA3 [2] = biological target: T2, TGA3 (Arabidopsis thaliana, UniProt Q39234 87-384); experiment: EMSA
T2 sequence: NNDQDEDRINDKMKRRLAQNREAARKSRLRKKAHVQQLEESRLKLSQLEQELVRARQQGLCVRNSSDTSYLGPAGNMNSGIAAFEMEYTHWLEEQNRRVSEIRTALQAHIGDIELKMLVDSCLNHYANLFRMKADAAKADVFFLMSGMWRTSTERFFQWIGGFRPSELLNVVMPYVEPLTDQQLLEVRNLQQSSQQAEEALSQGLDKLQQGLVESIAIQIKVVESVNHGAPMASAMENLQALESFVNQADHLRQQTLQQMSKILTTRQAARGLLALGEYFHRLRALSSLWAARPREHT

TGA3;NPR1 = TGA3;NPR1 (Arabidopsis thaliana;Arabidopsis …, UniProt Q39234;P93002 87-384;1-593, |); experiment: EMSA
TGA3 [3] = biological target: T2, TGA3; experiment: EMSA; remark: listed apart in the source
[4] = biological target: T3, Full-length Arabidopsis NPR1 (NPR1–Strep3, E. coli) (Arabidopsis thaliana, UniProt P93002 1-593); experiment: cryo-EM structure
T3 sequence (looked up): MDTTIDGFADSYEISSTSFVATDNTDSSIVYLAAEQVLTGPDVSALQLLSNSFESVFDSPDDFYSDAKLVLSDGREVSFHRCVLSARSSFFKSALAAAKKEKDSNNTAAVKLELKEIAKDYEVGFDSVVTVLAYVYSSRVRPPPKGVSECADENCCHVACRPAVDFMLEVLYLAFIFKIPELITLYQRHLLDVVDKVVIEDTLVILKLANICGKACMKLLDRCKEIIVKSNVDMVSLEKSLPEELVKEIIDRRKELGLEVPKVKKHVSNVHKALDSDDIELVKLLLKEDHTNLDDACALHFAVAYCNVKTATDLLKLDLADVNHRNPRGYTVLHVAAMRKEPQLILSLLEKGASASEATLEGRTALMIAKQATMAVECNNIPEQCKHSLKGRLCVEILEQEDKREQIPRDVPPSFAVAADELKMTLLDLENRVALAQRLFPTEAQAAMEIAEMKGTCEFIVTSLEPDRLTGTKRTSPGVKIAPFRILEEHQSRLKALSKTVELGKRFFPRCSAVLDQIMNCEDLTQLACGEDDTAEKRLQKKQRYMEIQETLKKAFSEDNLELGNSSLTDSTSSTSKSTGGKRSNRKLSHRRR

[5] = biological target: T4, Full-length Arabidopsis thaliana NPR1 (NPR1–Strep, insect cells) (Arabidopsis thaliana), P93002; experiment: cross-linking; details: remark: other sources report otherwise
T4 chain: T3 sequence (looked up)

X-ray crystal structure (1.5 Å); LC-ESI/MS of extracted lipid (TGA3 NID): a palmitic acid was found inside the NID
Molecule: CCCCCCCCCCCCCCCC(=O)O [palmitic acid]

B1: NPR1 BTB/BHB (Thr39–Lys262) npr1(C82A) (domain or fragment, Arabidopsis thaliana, UniProt P93002 39-262, looked up)
chain: TGPDVSALQLLSNSFESVFDSPDDFYSDAKLVLSDGREVSFHRAVLSARSSFFKSALAAAKKEKDSNNTAAVKLELKEIAKDYEVGFDSVVTVLAYVYSSRVRPPPKGVSECADENCCHVACRPAVDFMLEVLYLAFIFKIPELITLYQRHLLDVVDKVVIEDTLVILKLANICGKACMKLLDRCKEIIVKSNVDMVSLEKSLPEELVKEIIDRRKELGLEVPK
binding result [1]: binds

B2: NPR1 BTB/BHB (Thr39–Lys262) npr1(C212V/C216A/C223L) (domain or fragment, Arabidopsis thaliana, UniProt P93002 39-262, looked up)
chain: B1 chain with A44C, C174V, C178A, C185L
binding result [1]: binds

B3: WT NPR1 BTB/BHB (Thr39–Lys262) (domain or fragment, Arabidopsis thaliana, UniProt P93002 39-262, looked up)
chain: B1 chain with A44C
binding result [1]: binds

B4: LS5/LS7 (dsDNA)
DNA 1: GGGCTATGACGTAAGTAAAATAGTGACGTAGAGAGGG
DNA 2: CCCTCTCTACGTCACTATTTTACTTACGTCATAGCCC
binding result (NPR1): no binding | binding result (TGA3 [2]): binds | binding result (TGA3;NPR1): binds

B5: LS5-/LS7- (dsDNA)
DNA 1: GGGCTAAAAAAAAAGTAAAATAGAAAAAAAAAGAGGG
DNA 2: CCCTCTTTTTTTTTCTATTTTACTTTTTTTTTAGCCC
binding result (TGA3 [3]): no binding

binding result [4]: binds
B6: Arabidopsis TGA3 (Asn87–Thr384) (domain or fragment, Arabidopsis thaliana, UniProt Q39234 87-384, looked up)
chain: T2 sequence

stoichiometry N [5]: 2
B7: Full-length Arabidopsis thaliana NPR1 (NPR1–Strep, insect cells), P93002 1-593 (natural protein)
chain: T3 sequence (looked up)
